Measurements reported in US20220033460A1 (REPERTOIRE IMMUNE MEDICINES, published 2022).

Biological target: […] / HLA-B*07:02 tetramer (human; SARS-CoV-2)
Experiment: DNA-barcoded tetramer staining, single-cell sequencing

B1: TCR_11 (TCR, V domains shown)
V domain 1: EDQVTQSPEALRLQEGESSSLNCSYTVSGLRGLFWYRQDPGKGPEFLFTLYSAGEEKEKERLKATLTKKESFLHITAPKPEDSATYLCAVQAPMSARGSQGNLIFGKGTKLSVKP
V domain 2: GAGVSQSPSNKVTEKGKDVELRCDPISGHTALYWYRQSLGQGLEFLIYFQGNSAPDKSGLPSDRFSAERTGGSVSTLTIQRTQQEDSAVYLCASSSKGGGQQTQYFGPGTRLLVLE
No. of Cells: 10 cells
